Measured values taken from US20100204147A1 (REGENERX BIOPHARMACEUTICALS, published 2010).

Tests used:
Test in all cases: ELISA, immobilized fragment, without factor XIII or with non-activated factor XIII
[1] = target: T1, Recombinant αC-fragment corresponding to the human fibrinogen αC-domain (residues Aα221-610) (human, UniProt P02671 240-629)
T1 construct: By fibrinogen convention they are probably mature Aα chain numbering, without the signal peptide
T1 sequence (looked up): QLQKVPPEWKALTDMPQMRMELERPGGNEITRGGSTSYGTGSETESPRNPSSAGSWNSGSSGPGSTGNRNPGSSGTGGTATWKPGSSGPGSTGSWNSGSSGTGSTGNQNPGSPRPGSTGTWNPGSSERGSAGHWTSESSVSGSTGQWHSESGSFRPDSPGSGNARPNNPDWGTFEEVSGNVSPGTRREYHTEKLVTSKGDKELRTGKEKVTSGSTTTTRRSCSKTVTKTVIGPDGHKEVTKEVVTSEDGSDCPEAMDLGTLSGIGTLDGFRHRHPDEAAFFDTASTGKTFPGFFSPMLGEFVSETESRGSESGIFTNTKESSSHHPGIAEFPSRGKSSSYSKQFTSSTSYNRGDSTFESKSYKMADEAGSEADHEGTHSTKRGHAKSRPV
Method: (§1) The interaction between thymosin β4 and fibrin(ogen) and its fragments in the presence or absence of FXIIIa was studies by ELISA using plastic microliter plates. Wells of microliter plates were coated overnight at −4° C. with fibrinogen and fibrin at 10 μg/mL or with the recombinant fragments of 20 μg/ml, all in 0.1 M NaHCO₃ buffer, pH 8.3. Fibrin was made by addition to the wells of a mixture containing 10 μg/mL fibrinogen 1 NIH u/ml thrombin and 400 u/ml aprotinin, followed by overnight incubation at +4° C. The wells were then blocked by incubation with Super Blocker (Pierce) at 37° C. for 1 h. Following washing with TBS containing 0.05% Tween-20 (TBS-Tween), the indicated concentrations of thymosin β4, FXIII, FXIIIa(Thr) and FXIIIa(Ca) were added to the wells and incubated for 2-2.5 h at 37° C. Bound (incorporated) thymosin β4 was detected by the reaction with rabbit anti-thymosin β4 serum and peroxidase-conjugated anti-rabbit IgG. A TMB Microwell Peroxidase Substrase was added to the wells, and the incorporated thymosin β4 was measured spectrophotometrically at 450 nm.
(§2) The above observations were confirmed by ELISA. […] It should be noted that the incorporation of the γ-module was almost twice lower than that of the αC-domain variants at all concentration studied. When thymosin β4 was incubated with the same immobilized species in the presence of non-activated factor XIII or without it, the incorporation was very low in all cases.

[2] = target: T2, Recombinant truncated αC-fragment, COOH-terminal half (residues Aα392-610) (human, UniProt P02671 411-629)
T2 construct: probably the mature Aα chain; also called Aα392-610 sub-fragment; Aα392-610 fragment
T2 sequence (looked up): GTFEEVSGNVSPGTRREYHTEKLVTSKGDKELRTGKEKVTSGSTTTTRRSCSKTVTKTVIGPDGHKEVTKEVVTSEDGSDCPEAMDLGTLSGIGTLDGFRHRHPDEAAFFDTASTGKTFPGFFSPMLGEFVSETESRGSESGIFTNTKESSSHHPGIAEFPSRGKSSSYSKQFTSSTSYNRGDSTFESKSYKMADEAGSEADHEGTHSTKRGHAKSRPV
Method: as §1, §2

[3] = target: T3, Recombinant truncated αC-fragment, NH2-terminal half (residues Aα221-391) (human, UniProt P02671 240-410)
T3 construct: probably the mature Aα chain
T3 sequence (looked up): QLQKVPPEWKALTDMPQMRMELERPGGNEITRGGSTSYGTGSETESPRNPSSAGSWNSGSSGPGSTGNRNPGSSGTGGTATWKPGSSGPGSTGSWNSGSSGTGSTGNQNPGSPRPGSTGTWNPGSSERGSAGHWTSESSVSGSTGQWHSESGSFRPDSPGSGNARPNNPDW
Method: as §1, §2

binding result [1]: no binding
binding result [2]: no binding
binding result [3]: no binding
B1: Synthetic thymosin β4 (peptide, UniProt P62328 2-44, looked up)
peptide: SDKPDMAEIEKFDKSKLKKTETQEKNPLPSKETIEQEKQAGES
modifications: not fully specified
notes: mature; also called Tβ4
